Non-standard residues stand in square brackets, D forms with d. No end group written: not given here. pS = N[C@@H](COP(=O)(O)O)C(=O)O; MBP = not defined here
Molecular target: T1, GST-CHC 331–542 fragment (UniProt Q00610 331-542)
T1 sequence: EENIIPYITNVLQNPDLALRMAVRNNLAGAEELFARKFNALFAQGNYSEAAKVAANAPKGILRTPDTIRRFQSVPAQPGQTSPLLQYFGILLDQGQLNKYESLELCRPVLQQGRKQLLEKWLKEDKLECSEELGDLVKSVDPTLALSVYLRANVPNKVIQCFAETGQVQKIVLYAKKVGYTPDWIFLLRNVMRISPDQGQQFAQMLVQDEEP
Assay: pull-down

binding result: binds
B1: MBP-TACC3 522–577, phosphorylated by aurora A (domain or fragment)
chain: {MBP}-EESFRDPAEVLGTGAEVDYLEQFGTSSFKESALRKQ[pS]LYLKFDPLLRDSPGRPVPV
modifications: reading uncertain
